Experiments:
[1] = system: Histone octamer with H4K77succ (Xenopus laevis); test: FRET salt titration; settings: LexA FRET: 10 nM nucleosome, 0-100 uM LexA, 0.5x TE, 75 mM NaCl, 10 min, nucleosomes reconstituted by KCl step dialysis (2 M to 10 mM), 10 mM Tris-HCl pH 7.8 …
[2] = system: Histone octamer, H2B T112C or end-label DNA FRET, unmodified H4 (Xenopus laevis); test: FRET salt titration; settings: C1/2 is the NaCl concentration for 50% FRET loss, LexA FRET: 10 nM nucleosome, 0-100 uM LexA, 0.5x TE, 75 mM NaCl, 10 min, nucleosomes reconstituted by KCl step dialysis (2 M to 10 mM), 10 mM Tris-HCl pH 7.8 …
[3] = system: LexA; test: FRET LexA titration; settings: 75 mM NaCl, absolute S1/2 only in figure, LexA FRET: 10 nM nucleosome, 0-100 uM LexA, 0.5x TE, 10 min, nucleosomes reconstituted by KCl step dialysis (2 M to 10 mM), 10 mM Tris-HCl pH 7.8 …, scale: % decrease of S1/2 vs unmodified nucleosome

Q: With MMTV-B as the substance, how does the binding signal (% decrease of C1/2 vs unmodified) ([1]; NaCl titration) read?
A: 9

Q: And the K half [2]?
A: 0.475 M NaCl

Q: What does the source list for Widom 601, end-labelled?
A: K half ([1]; C1/2 is the NaCl concentration for 50% FRET loss, 14.8% lower than unmodified): 0.529 M NaCl; K half ([2]; not a protein Kd): 0.621 M NaCl

Q: With “601 DNA with LexA site, in H4K77succ nucleosome” as the substance, how does the binding signal [3] read?
A: 45.5

Source: paper PMC7515725
